Test results: patent US20030235860A1, “Interactions between AR, ER, TR2, and TR4” (priority 1999, published 2003)
No end group written: not given here.

T1: GST-TR2 (Homo sapiens, UniProt P13056)
T1 construct: pGEX-3x-TR2 were constructed by inserting full-length TR2 fragments to individual vectors; made in house; host or cells: E. coli BL21(DE3) pLysS
T1 sequence (P13056 1-603): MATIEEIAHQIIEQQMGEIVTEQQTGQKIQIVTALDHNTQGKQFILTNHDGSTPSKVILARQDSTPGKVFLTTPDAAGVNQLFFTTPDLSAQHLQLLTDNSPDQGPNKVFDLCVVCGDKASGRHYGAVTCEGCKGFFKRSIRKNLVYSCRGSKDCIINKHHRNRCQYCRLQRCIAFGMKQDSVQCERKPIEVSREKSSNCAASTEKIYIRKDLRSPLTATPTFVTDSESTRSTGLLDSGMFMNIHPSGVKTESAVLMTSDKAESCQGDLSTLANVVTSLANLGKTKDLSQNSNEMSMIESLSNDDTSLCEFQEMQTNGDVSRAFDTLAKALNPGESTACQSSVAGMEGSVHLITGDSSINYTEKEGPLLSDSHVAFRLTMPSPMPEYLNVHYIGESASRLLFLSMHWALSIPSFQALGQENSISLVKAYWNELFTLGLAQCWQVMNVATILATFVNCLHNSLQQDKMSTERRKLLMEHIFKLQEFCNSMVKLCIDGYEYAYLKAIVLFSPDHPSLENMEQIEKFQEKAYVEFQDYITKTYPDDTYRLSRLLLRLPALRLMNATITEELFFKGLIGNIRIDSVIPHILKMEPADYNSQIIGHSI

T2: ER-ERE (Homo sapiens, UniProt P03372)
T2 construct: Human full-length ER was inserted into the EcoRI site of pSG5 to produce pSG5-ER; host or cells: TNT coupled reticulocyte lysate, in vitro translation
T2 sequence (P03372 1-595): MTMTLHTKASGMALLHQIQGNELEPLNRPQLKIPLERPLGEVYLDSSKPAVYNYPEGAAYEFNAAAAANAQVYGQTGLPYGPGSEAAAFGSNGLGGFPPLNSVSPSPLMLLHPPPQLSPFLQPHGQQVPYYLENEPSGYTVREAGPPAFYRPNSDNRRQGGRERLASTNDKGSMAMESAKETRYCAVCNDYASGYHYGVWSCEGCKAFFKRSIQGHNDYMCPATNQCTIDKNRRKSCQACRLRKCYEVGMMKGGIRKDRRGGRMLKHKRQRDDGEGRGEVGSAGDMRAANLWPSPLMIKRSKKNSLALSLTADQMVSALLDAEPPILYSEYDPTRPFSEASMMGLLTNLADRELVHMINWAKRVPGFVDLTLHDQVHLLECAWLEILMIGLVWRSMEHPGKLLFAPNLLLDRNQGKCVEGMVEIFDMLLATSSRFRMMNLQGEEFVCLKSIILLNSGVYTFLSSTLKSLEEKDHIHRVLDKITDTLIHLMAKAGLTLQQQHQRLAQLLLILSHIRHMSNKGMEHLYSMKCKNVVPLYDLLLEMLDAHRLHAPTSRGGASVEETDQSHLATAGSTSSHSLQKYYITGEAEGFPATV


Columns and labels:
GST-TR2 = target: T1, GST-TR2; assay: GST-TR2 pull-down assay; format: binding; details: for Interaction with GST-TR2 fusion protein: 35S methionine-labeled proteins, Example 4; for Interaction with GST-TR2 in pull-down assay / Direct interaction with GST-TR2 fusion protein: in vitro translated [35S]-labeled proteins; for Interaction with GST-TR2 in pull-down assay: Example 1; for Direct interaction with GST-TR2 fusion protein: Example 2
Procedure: Fusion proteins of GST-TR2, GST-ER segments and GST were obtained by transforming expressing plasmids into BL21(DE3) pLysS competent bacteria followed with 2-hour IPTG induction. GST-proteins were then purified by mixing Glutathione-Sepharose™ 4B (Pharmacia) into bacteria lysates on a rotating disk at 4° C. for 40 mm followed by washing with 1 mL NENT buffer (20 mM Tris-HCL (pH 8.0), 100 mM NaCl, 1 mM EDTA, 6 mM MgCl2, 1 mM Dithiothretiol, 8% Glycerol, 1 mM PMSF and 0.5% (v/v) NP-40). The ER, AR, RXRA., and TR2 proteins labeled with [35S] were generated in vitro by using the TNT reticulocyte lysate system (Promega). For the in vitro interaction, the glutathione-Sepharose bound GST-proteins were resuspended with 100 μl of interaction buffer (20 mM HEPES pH 7.9, 150 mM KCl, 5 mM MgCl2. 0.5 mM EDTA, 0.5 mM Dithiothretiol, 0.1% (v/v) NP-40, 0.1% (w/v) BSA and 1 mM PMSF) and mixed with 5 μl of […] at 4° C. for 3 h. After extensive washes with NENT buffer, the bound proteins were separated on an SDS/8% PAGE and visualized by using autoradiography.
GST alone and GST fusion proteins were purified by Glutathione-Sepharose 4B beads as instructed by manufacturer (Amersham Pharmacia). The pull-down assay was performed with 5 μl of in vitro-translated [^35S]-labeled proteins as described previously (Yeh, S. et al. (2000) Proc. Natl. Acad. Sci. USA 97, 11256-61).
GST control protein and GST-TR2 fusion protein were purified by glutathione-sepharose 4B beads as described by manufacture (Amersham. Biosciences). Five microliters of in vitro-translated 35S-methionine-labeled proteins was used to perform the Pull-down assay as described previously [4F].

ER-ERE = target: T2, ER-ERE; assay: EMSA with ERE probe; format: binding
PSA = assay: Northern blot of endogenous PSA in LNCaP cells; format: cell-based, human
Procedure: Total RNA from the DHT-treated transfected LNCaP cells was prepared by the ultracentrifugation method as described. Lee, et al., J: Biol. Chem. 273, 13437-13443 (1998). The probe was obtained from exon 3 of PSA gene and labeled with a-32p dCTP.
To rule out the potential artificial effects linked to transfected reporter assays, the expression of endogenous prostate specific antigen (PSA, an androgen target that is widely used as a marker for prostate cancer progression) in LNCaP cells was measured by Northern blot analysis. Total RNA (25 μg) from LNCaP cells, which were transfected with either pCMX-TR4 or pCMX vector using SuperFect (Qiagen), was applied into a formamide RNA gel, then transferred onto a Nylon membrane, and then hybridized with a 32P-PSA gene fragment from the exon 3. P-actin was used as an internal control. […] The level of secreted PSA protein in the medium measured by ELISA, also confirmed this conclusion. This in vivo TR4-mediated suppressive effect strongly supports the above reporter assays.
Total RNA from transfected LNCaP cells was prepared using TRIZOL reagents (Life Technology) as instructed by manufacturer. The probe was obtained from the PSA gene by PCR and labeled with 32P dCTP. Northern hybridization was performed as described previously [Mu X. M. et al. (2002) J Biol Chem 275:23877-23883].

| Molecule | Interaction with GST-TR2 fusion protein (GST-TR2) | Interaction with GST-TR2 in pull-down assay (GST-TR2) | Direct interaction with GST-TR2 fusion protein (GST-TR2) | other results |
| --- | --- | --- | --- | --- |
| AR: androgen receptor, SEQ ID NO:31 | able to interact | can interact well | directly interact |  |
| ER-#6: interaction blocker, ER fragment aa 312-340, as HA-tagged peptide, expression plasmid or cleaved peptide (ADQMVSALLDAEPPILYSEYDPTRPFSEA; also: HA tag (position not given here); UniProt P03372 312-340, looked up, fragment) |  |  |  | Interaction of GST-TR2 with [35S]-labeled ER (GST-TR2; increasing amounts of HA-ER-#6 peptide, absence of E2): inhibited |
| RXR: retinoid X receptor, another member of the steroid receptor superfamily | not able to interact | not | not |  |
| TR4: human testicular orphan nuclear receptor 4, SEQ ID NO:16; expressed from plasmid or in vitro translated (protein) MTSPSPRIQIISTDSAVASPQRIQGSEPASGPLSVFTSLNKEKIVTDQQTGQKIQIVTAVDASGSPKQQFILTSPDGAGTGKVILASPETSSAKQLIFTTSDNLVPGRIQIVTDSASVERLLGKTDVQRPQVVEYCVVCGDKASGRHYGAVSCEGCKGFFKRSVRKNLTYSCRSSQDCIINKHHRNRCQFCRLKKCLEMGMKMESVQSERKPFDVQREKPSNCAASTEKIYIRKDLRSPLIATPTFVADKDGARQTGLLDPGMLVNIQQPLIREDGTVLLATDSKAETSQGALGTLANVVTSLANLSESLNNGDTSEIQPEDQSASEITRAFDTLAKALNTTDSSSSPSLADGIDTSGGGSIHVISRDQSTPIIEVEGPLLSDTHVTFKLTMPSPMPEYLNVHYICESASRLLFLSMHRARSIPAFQGLGQDCNTSLVRACWNELFTLGLAQCAQVMSLSTILAAIVNHLQNSIQEDKLSGDRIKQVMEHIWKLQEFCNSMANWDIDGYEYAYLKAIVLFSPDHPGLTSTSQIEKFQEKAQMELQDYVQKTYSEDTYRLARILVRLPALRLMSSNITEELFFTGLIGNVSIDSIIPYILKMETAEYNGQITGVSL |  |  |  | ER-[32P]ERE binding band (ER-ERE; increasing amounts of in vitro expressed TR4): reduced; Expression of endogenous PSA transcript (PSA; LNCaP cells transfected with pCMX-TR4, absence or presence of 10 nM DHT): clearly repress |
| TR2: human testicular orphan nuclear receptor 2, 603 amino acids (protein, UniProt P13056 1-603, looked up, full-length, human testicular orphan nuclear receptor 2, 603 amino acids) MATIEEIAHQIIEQQMGEIVTEQQTGQKIQIVTALDHNTQGKQFILTNHDGSTPSKVILARQDSTPGKVFLTTPDAAGVNQLFFTTPDLSAQHLQLLTDNSPDQGPNKVFDLCVVCGDKASGRHYGAVTCEGCKGFFKRSIRKNLVYSCRGSKDCIINKHHRNRCQYCRLQRCIAFGMKQDSVQCERKPIEVSREKSSNCAASTEKIYIRKDLRSPLTATPTFVTDSESTRSTGLLDSGMFMNIHPSGVKTESAVLMTSDKAESCQGDLSTLANVVTSLANLGKTKDLSQNSNEMSMIESLSNDDTSLCEFQEMQTNGDVSRAFDTLAKALNPGESTACQSSVAGMEGSVHLITGDSSINYTEKEGPLLSDSHVAFRLTMPSPMPEYLNVHYIGESASRLLFLSMHWALSIPSFQALGQENSISLVKAYWNELFTLGLAQCWQVMNVATILATFVNCLHNSLQQDKMSTERRKLLMEHIFKLQEFCNSMVKLCIDGYEYAYLKAIVLFSPDHPSLENMEQIEKFQEKAYVEFQDYITKTYPDDTYRLSRLLLRLPALRLMNATITEELFFKGLIGNIRIDSVIPHILKMEPADYNSQIIGHSI |  |  |  | Intensity of ER-ERE supershift (ER-ERE; increasing amount of TR2, absence or presence of 1 μM E2, Example 1): decreased; Intensity of ER-ERE complexes (ER-ERE; increasing amounts of TR2, absence or presence of 10 nM E2, Example 2): decreased; PSA mRNA expression (PSA; LNCaP cells, 10 nM DHT, pCMV-TR2, Example 4): suppresses |
